Consider 21 molecules from patent US20210246204A1 (Alector, published 2021).

Sequences and labels used below:
B1: S7AB-H8.45 (antibody, V domains shown)
VH: QVQLVQSGAEVKKPGASVKVSCKASGYAFTEAWMNWVRQAPGQGLEWIGRIFPGYGHTNYAQKFQGRATLTEDTSTSTAYMELSSLRSEDTAVYYCARDYSDYYFDYWGQGTLVTVSS
VL: DIQMTQSPSSLSASVGDRVTITCRGSQDINTYLNWYQQKPGKAPKLLIYYTSRLHSGVPSRFSGSGSGTDYTLTISSLQPEDFATYYCQQGNILPWTFGQGTKLEIK
B2: S7AB-H8.43 (antibody, V domains shown)
VH: B1 VH with E31G, A32Y, Y55L
VL: B1 VL
notes: also called S7AB-H.43
B3: S7AB-H8.41 (antibody, V domains shown)
VH: B1 VH with A32T, Y55L
VL: B1 VL
B4: S7AB-H8.42 (antibody, V domains shown)
VH: B1 VH with E31M
VL: B1 VL
B5: S7AB-H8.40 (antibody, V domains shown)
VH: B1 VH
VL: B1 VL with I93V
B6: S7AB-H8.37 (antibody, V domains shown)
VH: B1 VH with E31M
VL: B1 VL with I93V
B7: S7AB-H8.38 (antibody, V domains shown)
VH: B1 VH with E31G, A32Y, Y55L
VL: B1 VL with I93V
B8: S7AB-H8.39 (antibody, V domains shown)
VH: B1 VH with E31A, Y55L
VL: B1 VL with I93V
B9: S7AB-H8.44 (antibody, V domains shown)
VH: B1 VH with E31A, Y55L
VL: B1 VL
B10: S7AB-H8.44 huIgG1 SELF (antibody, V domains shown)
VH: B1 VH with E31A, Y55L
VL: B1 VL
B11: S7AB-H8.44 huIgG1 (antibody, V domains shown)
VH: B1 VH with E31A, Y55L
VL: B1 VL
B12: S7AB-H8.44 huIgG2 (antibody, V domains shown)
VH: B1 VH with E31A, Y55L
VL: B1 VL
B13: S7AB (antibody, V domains shown)
VH: QVHLQQSGPELVKPGASVKISCKASGYAFTNCWMNWVRQRPGKGLDWIGRIFPGNGHTNYSGKFKDKATLTEDKSSSTAYMQLSSLTSEDSAVYFCARDYSDYYFDYWGQGTTLTVSS
VL: DVQMTQTTSSLSASLGDRVTISCRASQDINTYLNWYQQKPDGTVKLLIYYTSRLHSGVPSRFSGSGSGTDYSLTISNLEQEDIATYFCQQGNTLPWTFGGGTKLEIK
notes: Parental mouse antibody; also called S7-10B5.1; mouse anti-human Siglec-7 antibody
B14: S7AB-H1 (antibody, V domains shown)
VH: B1 VH with E31N, A32C, I48M, Y55N, A68V, L70M, E72R, A79V
VL: B1 VL with G25A, Y71F, I93T
B15: S7AB-H2 (antibody, V domains shown)
VH: B1 VH with E31N, A32C, I48M, Y55N, A68V, L70M, E72R, A79V
VL: B1 VL with G25A, I93T
B16: S7AB-H5 (antibody, V domains shown)
VH: B1 VH with E31N, A32C, Y55N, A68V, L70M, A79V
VL: B1 VL with G25A, I93T
B17: S7AB-H4 (antibody, V domains shown)
VH: B1 VH with E31N, A32C, Y55N, A68V, L70M, A79V
VL: B1 VL with G25A, Y71F, I93T
B18: S7AB-H7 (antibody, V domains shown)
VH: B1 VH with V20I, E31N, A32C, Y55N
VL: B1 VL with G25A, Y71F, I93T
B19: S7AB-H6 (antibody, V domains shown)
VH: B1 VH with E31N, A32C, Y55N, A68V, L70M, A79V
VL: B1 VL with I2V, G25A, I93T
B20: S7AB-H10 (antibody, V domains shown)
VH: B1 VH with V20I, E31N, A32C, Y55N, V114L
VL: B1 VL with G25A, Y71F, I93T
B21: S7AB-H3 (antibody, V domains shown)
VH: B1 VH with E31N, A32C, I48M, Y55N, A68V, L70M, E72R, A79V
VL: B1 VL with I2V, G25A, I93T

As a reminder, the Kd is the concentration at which binding is half-saturated. Usually koff stands for the rate constant with which the complex falls apart. Broadly, the kon is the second-order rate constant of association. Low readings indicate slow association, high ones fast association. A word on the EC50: it is the concentration giving half of the maximal effect. Low readings indicate greater potency, high ones weaker potency.

Numbering of substitutions follows the chain as printed.

T1 sequence (Q9Y286 19-353 limits assumed): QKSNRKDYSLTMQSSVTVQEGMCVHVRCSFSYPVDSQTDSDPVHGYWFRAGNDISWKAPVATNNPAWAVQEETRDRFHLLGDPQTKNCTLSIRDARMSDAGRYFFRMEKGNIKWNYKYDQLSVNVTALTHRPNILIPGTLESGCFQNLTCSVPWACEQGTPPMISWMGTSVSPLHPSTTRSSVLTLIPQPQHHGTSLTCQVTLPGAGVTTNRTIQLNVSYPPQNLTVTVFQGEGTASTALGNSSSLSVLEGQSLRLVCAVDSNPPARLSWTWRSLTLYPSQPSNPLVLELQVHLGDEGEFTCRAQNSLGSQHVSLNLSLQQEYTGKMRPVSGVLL

The first test concerns the target T1, histidine-tagged human Siglec-7 (NovoProtein) (human, UniProt Q9Y286 19-353).
T1 construct: Bought protein; also called recombinant human Siglec-7; recombinant Siglec-7; not shown: histidine tag
Put plainly: BLI, antibody captured. Summed up:
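Antibodies captured on anti-human or anti-mouse IgG Fc biosensors; His-tagged human Siglec-7 flowed at 0–100 nM (200 s association, 900 s dissociation). ka and kd from 1:1 multi-concentration fit; apparent KD = kd/ka.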
As for B1, the Kd worked out at 444 pM, the “fold improvement over S7AB-H8” value amounted to 2.4 fold, the koff was 7.55e-05 s⁻¹ and the kon came out at 170000 M⁻¹ s⁻¹.

Turning to B2, the dissociation constant (Kd) was 256 pM, the “fold improvement over S7AB-H8” value was found to be 4.1 fold, the koff turned out to be 5.84e-05 s⁻¹ and the kon was 228000 M⁻¹ s⁻¹.

As for B3, binding was put at a Kd of 531 pM, the “fold improvement over S7AB-H8” value came to 2 fold, the koff is 9.12e-05 s⁻¹ and the kon amounted to 172000 M⁻¹ s⁻¹.

Consider B4, for which binding was characterised by a dissociation constant (Kd) of 126 pM, the “fold improvement over S7AB-H8” value was 8.3 fold, the koff came to 2.42e-05 s⁻¹ and the kon came to 191000 M⁻¹ s⁻¹.

Consider B5, for which binding was put at a Kd of 425 pM, the “fold improvement over S7AB-H8” value turned out to be 2.5 fold, the koff turned out to be 6.29e-05 s⁻¹ and the kon is 148000 M⁻¹ s⁻¹.

Regarding B6, binding was characterised by a dissociation constant (Kd) of 135 pM, the “fold improvement over S7AB-H8” value came out at 7.8 fold, the koff came to 2.5e-05 s⁻¹ and the kon was 186000 M⁻¹ s⁻¹.

For the molecule B7, the Kd worked out at 324 pM, the “fold improvement over S7AB-H8” value was determined as 3.2 fold, the koff is 7.4e-05 s⁻¹ and the kon turned out to be 229000 M⁻¹ s⁻¹.

As to B8, the affinity, expressed as Kd, was 215 pM; the “fold improvement over S7AB-H8” value turned out to be 4.9 fold; the koff came out at 3.56e-05 s⁻¹; the kon is 166000 M⁻¹ s⁻¹.

Consider B9, for which the affinity, expressed as Kd, was 198 pM; the “fold improvement over S7AB-H8” value turned out to be 5.3 fold; the koff was determined as 3.71e-05 s⁻¹; the kon turned out to be 188000 M⁻¹ s⁻¹.

For the next test, the target named is T2, human Siglec-7 on primary human monocyte-derived dendritic cells (human, UniProt Q9Y286 19-467). The experiment in a line: cell-based or functional assay.
T2 sequence (Q9Y286 19-467): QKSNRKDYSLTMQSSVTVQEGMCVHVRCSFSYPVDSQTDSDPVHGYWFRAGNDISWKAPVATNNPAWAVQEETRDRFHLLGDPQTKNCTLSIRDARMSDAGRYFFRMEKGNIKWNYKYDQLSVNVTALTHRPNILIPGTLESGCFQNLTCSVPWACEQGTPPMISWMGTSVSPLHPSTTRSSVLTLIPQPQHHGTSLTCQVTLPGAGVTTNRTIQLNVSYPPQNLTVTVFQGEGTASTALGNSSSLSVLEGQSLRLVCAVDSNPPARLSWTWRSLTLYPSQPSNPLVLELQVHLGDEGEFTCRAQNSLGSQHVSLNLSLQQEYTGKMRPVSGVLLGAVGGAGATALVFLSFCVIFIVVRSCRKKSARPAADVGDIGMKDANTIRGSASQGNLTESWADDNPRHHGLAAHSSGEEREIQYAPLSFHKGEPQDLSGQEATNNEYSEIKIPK
Take B1: the “Fold increase in potency compared to AB-H8” value (from here on “Fold increase … to AB-H8”) was 3.4 fold; the “Fold increase in potency compared to Chimeric Ab” value (shortened to “Fold increase … to Chimeric Ab”) amounted to 10.4 fold; the “Maximal downregulation (% Siglec-7 remaining)” value was determined as 6.9%; the “Receptor downregulation, (EC50) (pM)” value was 98.6 pM.

On to B2, for which the “Fold increase … to AB-H8” value was determined as 10.2 fold; the “Fold increase … to Chimeric Ab” value is 30.8 fold; the “Maximal downregulation (% Siglec-7 remaining)” value came to 17.1%; the “Receptor downregulation, (EC50) (pM)” value worked out at 33.2 pM.

In the case of B3, the “Fold increase … to AB-H8” value stood at 3.2 fold; the “Fold increase … to Chimeric Ab” value was 9.5 fold; the “Maximal downregulation (% Siglec-7 remaining)” value is 9.6%; the “Receptor downregulation, (EC50) (pM)” value is 108 pM.

For B4, the “Fold increase … to AB-H8” value was 5.4 fold; the “Fold increase … to Chimeric Ab” value turned out to be 16.4 fold; the “Maximal downregulation (% Siglec-7 remaining)” value is 3.3%; the “Receptor downregulation, (EC50) (pM)” value was 62.6 pM.

With B5, the “Fold increase … to AB-H8” value turned out to be 2.9 fold; the “Fold increase … to Chimeric Ab” value was determined as 8.9 fold; the “Maximal downregulation (% Siglec-7 remaining)” value is 9.4%; the “Receptor downregulation, (EC50) (pM)” value is 115 pM.

For the molecule B6, the “Fold increase … to AB-H8” value was determined as 4.8 fold; the “Fold increase … to Chimeric Ab” value was 14.3 fold; the “Maximal downregulation (% Siglec-7 remaining)” value was 3.4%; the “Receptor downregulation, (EC50) (pM)” value was found to be 71.4 pM.

B7: the “Fold increase … to AB-H8” value came out at 4.8 fold; the “Fold increase … to Chimeric Ab” value worked out at 14.5 fold; the “Maximal downregulation (% Siglec-7 remaining)” value was determined as 17.1%; the “Receptor downregulation, (EC50) (pM)” value was 70.4 pM.

In the case of B8, the “Fold increase … to AB-H8” value amounted to 6 fold; the “Fold increase … to Chimeric Ab” value stood at 18 fold; the “Maximal downregulation (% Siglec-7 remaining)” value amounted to 4.3%; the “Receptor downregulation, (EC50) (pM)” value is 56.8 pM.

Turning to B9, the “Fold increase … to AB-H8” value is 5.6 fold; the “Fold increase … to Chimeric Ab” value worked out at 16.7 fold; the “Maximal downregulation (% Siglec-7 remaining)” value is 3.6%; the “Receptor downregulation, (EC50) (pM)” value turned out to be 61.2 pM.

The next test has as its target T2, human Siglec-7 on primary human …. Put plainly: cell-based or functional assay. The source holds these as a separate data set.
Turning to B10, the “Maximal downregulation (% Siglec-7 remaining)” value was less than 0.1% and the “Receptor downregulation, (pM, EC50)” value was 9.1 pM.

In the case of B11, the “Maximal downregulation (% Siglec-7 remaining)” value was determined as 1% and the “Receptor downregulation, (pM, EC50)” value was 33.6 pM.

Regarding B12, the “Maximal downregulation (% Siglec-7 remaining)” value came out at 2.8% and the “Receptor downregulation, (pM, EC50)” value worked out at 43.8 pM.

Another test deals with T1, histidine-tagged human Siglec-7 …. Put plainly: BLI (ForteBio), antibody captured. Here is the method: In this assay, the humanized antibodies were compared directly to S7AB. Briefly, the antibodies were captured on anti-human or anti-mouse IgG Fc Biosensors (Pall ForteBio). Varying concentrations (0-100 nM) of histidine-tagged human Siglec-7 (NovoProtein) were then bound to the captured anti-Siglec-7 surface (200 s association time, 900 s dissociation time). Multi-concentration kinetic analysis was performed using a 1:1 interaction model to extract association and dissociation rate constants (kₐ and kd, respectively) for each antibody. Apparent affinity constants (KD) were calculated from the ratio kd/kₐ.
(In general: Biolayer interferometry detects binding as a change in optical thickness at a sensor tip.)
Molecule B13 came in with a Kd of 1240 pM, a koff of 0.000242 s⁻¹ and a kon of 195000 M⁻¹ s⁻¹.

The target of the next test is T2, human Siglec-7 on primary human …. The experiment in a line: flow cytometry, primary human dendritic cells. Here is the method:
The 12 humanized antibodies of S7AB were evaluated for binding to primary dendritic cells by flow cytometry. Monocytes were isolated from blood from healthy human donors using the RosetteSep™ monocyte isolation antibody cocktail (StemCell Technologies). The isolated monocytes were differentiated into dendritic cells with 100 ng/mL GM-CSF and 100 ng/mL IL-4 (Peprotech). Dendritic cells were incubated with dilutions of the anti-Siglec-7 antibodies for 30 minutes on ice in the dark, followed by a 30-minute incubation with a fluorescently-conjugated anti-human IgG secondary antibody. Cells were washed twice in FACS buffer (PBS+2% FBS, 2 mM EDTA), and flow cytometry was performed on a BD FACS Canto. Data were analyzed using FlowJo software (Ashland, Oreg.).
B14: the EC50 was found to be 4600 pM.

B15 registered an EC50 of 1800 pM.

On to B16, for which it took 1100 pM to reach a half-maximal effect (EC50).

For the molecule B17, the response was half-maximal at 3200 pM (EC50).

Molecule B18 registered an EC50 of 3300 pM.

The molecule B19 displayed an EC50 of 1600 pM.

B20 registered an EC50 of 6300 pM.

B21 registered an EC50 of 1600 pM.
